Source: patent publication US20250295799A1 (Zymeworks, published 2025)
Positions count from the first letter of the chain named.

Experiments:
[1] = target: KLH (Sigma-Aldrich, H8283); assay: NS-ELISA, plate coated with KLH, antibody at 100 nM
Method: 50 μL each of insulin, KLH, dsDNA and ssDNA were added to a 96 well plate, followed by the incubation at 37° C. for 2 h. The coating materials were removed, and the plate was blocked with 200 μL of Gibco™ PBS pH7.4, 0.1% Tween®20, and incubated for 1 h at room temperature with shaking at 200 rpm. The plate was washed 3 times with Gibco™ PBS pH7.4, 0.1% Tween 20. 50 μL of each mAb at 100 nM (15 mg/mL) in Gibco™ PBS pH 7.4, 0.1% Tween®20 was added in duplicate to the wells and incubated for 1 h at room temperature with shaking at 200 rpm. Plates were washed three times with Gibco™ PBS pH7.4, 0.1% Tween 20, and 50 μL of 50 ng/mL anti-human IgG HRP (Thermofisher Scientific©, H₁₀₃₀₇) was added to each well. Plates were incubated for 1 h at room temperature, with shaking at 200 rpm. The plate was washed three times with Gibco™ PBS pH7.4, 0.1% Tween 20, and 100 μL of TMB substrate (Cell Signaling Technology©, 7004P6) added to each well. […] Binding scores were calculated as the ratio of the ELISA signal of the antibody to the signal of a well containing buffer instead of the primary antibody. The cutoffs considered for each binding molecule (ssDNA. KLH, Insulin, dsDNA and Heparin) were internally calculated.

human GPC3 on cells [2] = target: T1, human GPC3 on cells (human, UniProt P51654 25-554); assay: flow cytometry on JHH-7 cells (GPC3-high), 24 h at 4 C, anti-human IgG Fc AF647
T1 construct: GPI-anchored protein on transfected CHO-S cells, on human tumor cell lines or on HEK293T cells; the cell is named under assay; also called human GPC3 on CHO-S transfected cells; HuGPC3-CHO
Method: (§1) Briefly, cells were seeded at 50,000 cells/well in V-bottom 96-well plates and treated with antibody for 24 hours at 4° C. to prevent internalization. […] Following incubation and washing, fluorescence was detected by flow cytometry on a BD LSRFortessa™ Cell Analyzer (BD Biosciences, Franklin Lake, NJ) with 1,000 minimum events collected per well. AF647/APC-A GeoMean (fluorescence signal geometric mean, proportional to anti-Human AF647 binding) in live cell population was plotted against antibody concentration using GraphPad Prism Version 9 (GraphPad Software, San Diego, CA). The Bmax, Curve Hill Slope (h) and Kd values were derived from the “Specific binding with Hill slope” nonlinear regression curve fit in GraphPad Prism Version 9.

human GPC3 on cells [3] = target: T1, human GPC3 on cells; assay: flow cytometry, CHO-S cells transfected with human GPC3; apparent Kd
Method: (§2) Briefly, CHO—S cells were transiently transfected for −24 hours with a pTT5-based expression plasmid encoding human GPC3 or cynomolgus monkey GPC3, 0.5 μg DNA per 1 million cells, using the Neon™ Transfection System (Thermo Fisher Scientific Corp., Waltham, MA), to transiently express human or cynomolgus monkey GPC3. Following transfection, cells were seeded at 50,000 cells/well in V-bottom 96-well plates and treated with antibody for 24 hours at 4° C. to prevent internalization. […] Following incubation and washing, fluorescence was detected by flow cytometry on a BD LSRFortessa™ Cell Analyzer (BD Biosciences, Franklin Lake, NJ) with 1,000 minimum events collected per well. AF647/APC-A GeoMean (fluorescence signal geometric mean, proportional to anti-Human AF647 binding) in live cell population was plotted against antibody concentration using GraphPad Prism Version 9 (GraphPad Software, San Diego, CA). The Bmax and Kd values were derived from the “Specific binding with Hill slope” nonlinear regression curve fit in GraphPad Prism Version 9.

[4] = target: T2, cynomolgus monkey GPC3 on CHO-S transfected cells (cynomolgus monkey, UniProt A5A6P7 25-554 (Pan troglodytes entry)); assay: flow cytometry, CHO-S cells transfected with cynomolgus monkey GPC3; apparent Kd
T2 construct: transient expression from a pTT5-based plasmid; also called CHO-S Cyno GPC3; CynoGPC3-CHO
Method: as §2

human GPC3 on cells [5] = target: T1, human GPC3 on cells; assay: flow cytometry, JHH-7 cells; apparent Kd
Method: as §1

human GPC3 on cells [6] = target: T1, human GPC3 on cells; assay: flow cytometry, JHH-7 cells
Method: as §1

human GPC3 on cells [7] = target: T1, human GPC3 on cells; assay: flow cytometry on HepG2 cells (GPC3-high), 24 h at 4 C, anti-human IgG Fc AF647
Method: as §1

human GPC3 on cells [8] = target: T1, human GPC3 on cells; assay: flow cytometry, HepG2 cells
Method: as §1

[9] = target: T3, recombinant cynomolgus GPC3 (ACROBiosystems) (cynomolgus monkey, UniProt A5A6P7 25-559 (Pan troglodytes entry), limits assumed); assay: SPR, antibody captured on anti-Fc, GPC3 injected, 1:1 fit
T3 construct: bought antigen of the SPR assays; also called cynoGPC3
Method: (§3) Antigens: recombinant human and cynomolgus GPC3 was purchased from ACROBiosystems (Newark, DE) and SEC purified on a Superdex 200 10/300 GL column (Cytiva) in PBST running buffer at 0.8 mL/min.
(§4) Screening of the antibodies for binding to GPC3 antigen was conducted via anti-Fc capture of antibodies, followed by the injection of five concentrations of GPC3. The anti-Fc surface was prepared on a CM5 Series S sensor chip by standard amine coupling methods as described by the manufacturer (Cytiva Life Sciences, Mississauga, ON, Canada). […] Approximately 500-600 RUs of each antibody (1-3 μg/mL) were captured on the goat anti-human IgG surface by injecting at 10 μL/min for 60s. Using single-cycle kinetics, five concentrations of a two-fold dilution series of human or cynomolgus GPC3 starting at 40 nM (or 20 nM) with a blank buffer control were injected at 40 μL/min for 180s of contact time, followed by 180 s (or 300 s) dissociation phase, resulting in sensorgrams with a buffer blank reference. The anti-Fc surface was regenerated to prepare for the next injection cycle by one pulse of 10 mM glycine/HCl pH 1.5 for 180 s at 40 μL/min. Blank-subtracted sensorgrams were analyzed using Biacore™ T200 Evaluation Software v3.0. The blank-subtracted sensorgrams were then fit to the 1:1 Langmuir binding model.

[10] = target: T4, recombinant human GPC3 (ACROBiosystems) (human, UniProt P51654 25-559); assay: as above
T4 construct: bought antigen of the SPR assays, SEC purified; also called huGPC3; hGPC3
Method: as §3, §4

human GPC3 on cells [11] = target: T1, human GPC3 on cells; assay: flow cytometry, HepG2 cells; apparent Kd
Method: as §1

human GPC3 on cells [12] = target: T1, human GPC3 on cells; assay: flow cytometry on JHH-5 cells (GPC3-mid), 24 h at 4 C, anti-human IgG Fc AF647
Method: (§5) Cell lines investigated included GPC3-hi HepG2 and JHH-7 cells, GPC3-mid JHH-5 cells, as well as GPC3-negative SNU-601 cells.
as §1

human GPC3 on cells [13] = target: T5, human GPC3 on cells (human, UniProt P51654 25-554); assay: flow cytometry, JHH-7 cells
T5 construct: whole, on cells; One molecule is used for transfected CHO-S cells and for tumour cell lines that carry GPC3; the cell line is named under assay or readout; also called CHO-S Human GPC3; GPC3 on HepG2, JHH-7, JHH-5, NCI-H446, FU-97, Huh-6, Huh-7, MKN-45 cells
Method: as §5, §1

[14] = target: T6, cynomolgus monkey GPC3 on CHO-S cells (cynomolgus monkey, UniProt A0A2K5VK50 24-553); assay: flow cytometry, CHO-S cells transfected with cynomolgus monkey GPC3; apparent Kd
T6 construct: whole, on cells; also called CHO-S Cyno GPC3
Method: as §2

human GPC3 on cells [15] = target: T5, human GPC3 on cells; assay: flow cytometry, HepG2 cells
Method: as §5, §1

human GPC3 on cells [16] = target: T5, human GPC3 on cells; assay: flow cytometry, CHO-S cells transfected with human GPC3; apparent Kd
Method: as §2

[17] = target: T6, cynomolgus monkey GPC3 on CHO-S cells; assay: flow cytometry, CHO-S cells transfected with cynomolgus monkey GPC3
Method: as §2

human GPC3 on cells [18] = target: T5, human GPC3 on cells; assay: flow cytometry, CHO-S cells transfected with human GPC3
Method: as §2

human GPC3 on cells [19] = target: T5, human GPC3 on cells; assay: flow cytometry, JHH-5 cells
Method: as §5, §1

human GPC3 on cells [20] = target: T1, human GPC3 on cells; assay: flow cytometry on JHH-7 cells (GPC3-high), 24 h at 4 C, anti-human IgG Fc AF647; remark: listed apart in the source
Method: as §5, §1

human GPC3 on cells [21] = target: T1, human GPC3 on cells; assay: flow cytometry on HepG2 cells (GPC3-high), 24 h at 4 C, anti-human IgG Fc AF647; remark: listed apart in the source
Method: as §5, §1

human GPC3 on cells [22] = target: T1, human GPC3 on cells; assay: flow cytometry on CHO-S cells transiently transfected with human GPC3, 24 h at 4 C, anti-human IgG Fc AF647
Method: as §2

FcgR1A = target: T7, FcgR1A (human, UniProt P12314 16-374); assay: Membrane Proteome Array: high-throughput flow cytometry on unfixed HEK293T cells, each well expressing one human membrane protein; antibody at 1.25 ug/mL; the text ascribes this to the Fc portion
T7 construct: whole, on cells
T7 sequence (P12314 16-374): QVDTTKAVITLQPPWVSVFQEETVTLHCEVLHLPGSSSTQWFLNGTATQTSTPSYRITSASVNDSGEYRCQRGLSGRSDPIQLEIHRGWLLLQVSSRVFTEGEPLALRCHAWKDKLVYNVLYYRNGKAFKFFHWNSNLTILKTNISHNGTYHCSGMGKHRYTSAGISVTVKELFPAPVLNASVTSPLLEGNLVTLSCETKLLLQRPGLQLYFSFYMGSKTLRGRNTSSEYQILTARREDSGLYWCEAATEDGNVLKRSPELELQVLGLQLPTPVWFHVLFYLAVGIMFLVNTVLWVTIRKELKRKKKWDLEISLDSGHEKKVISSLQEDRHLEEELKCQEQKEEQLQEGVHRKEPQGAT
Method: Briefly, the study consisted of three phases: phase (1) determination of assay screening conditions, phase (2) membrane proteome array (library) screen and phase (3) protein target validation. […] In phase (3), each protein target hit from the screen stage (potential off-target interactions) was assessed in titration experiment using flow cytometry.

human GPC3 on cells [23] = target: T1, human GPC3 on cells; assay: flow cytometry, JHH-5 cells
human GPC3 on cells [24] = target: T1, human GPC3 on cells; assay: flow cytometry, JHH-7 cells; remark: listed apart in the source
[25] = target: T4, recombinant human GPC3 (ACROBiosystems); assay: SPR; Kd on huGPC3 over Kd on cynoGPC3
Method: as §3, §4

human GPC3 on cells [26] = target: T1, human GPC3 on cells; assay: cell-based or functional assay
[27] = target: T4, recombinant human GPC3 (ACROBiosystems); assay: SPR

B1: v37574 (M3-H18L6) (antibody, human IgG1, kappa)
heavy: not shown
light: EIVLTQSPATLSLSPGERATISCRSSQSLRHSNGNTYLQWYQQKPGQAPRLLIYKVSNRFSGVPARFSGSGSGTDFTLTISSLEPEDFAVYFCYQSKHVPYTFGGGTKVEIKRTVAAPSVFIFPPSDEQLKSGTASVVCLLNNFYPREAKVQWKVDNALQSGNSQESVTEQDSKDSTYSLSSTLTLSKADYEKHKVYACEVTHQGLSSPVTKSFNRGEC
notes: humanized full-size IgG1 (IGHG1*01)/kappa antibody without heavy chain C-terminal lysine
[1]
  NS-ELISA binding score: 0.91 ratio to buffer well
Human GPC3 on cells [2]
  EC50 (read off the curve): ~200 pM
Human GPC3 on cells [3]
  Kd: 530 pM
[4]
  Kd: 380 pM
Human GPC3 on cells [5]
  Kd: 220 pM
Human GPC3 on cells [6]
  Bmax: 8520
Human GPC3 on cells [7]
  EC50 (read off the curve): ~700 pM
Human GPC3 on cells [8]
  Bmax: 33900
[9]
  Kd: 11100 pM
[10]
  Kd: 11100 pM
Human GPC3 on cells [11]
  Kd: 1100 pM
Human GPC3 on cells [12]
  EC50 (read off the curve): ~200 pM

B2: v38592-MC-GGFG-AM-Compound 139, DAR 4 (antibody, human IgG1, kappa)
heavy: not shown
light: B1 light
modifications: MC-GGFG-AM-Compound 139 drug-linker on cysteines (positions not stated); DAR 4 per antibody
notes: Antibody-drug conjugate of v38592
Human GPC3 on cells [13]
  Bmax: 4730
  Kd: 880 pM
[14]
  Kd: 550 pM
Human GPC3 on cells [15]
  Bmax: 4050
  Kd: 8690 pM
Human GPC3 on cells [16]
  Kd: 290 pM
[17]
  Bmax: 506
Human GPC3 on cells [18]
  Bmax: 259
Human GPC3 on cells [19]
  Bmax: 5500
  Kd: 430 pM

B3: v37574 (M3-H18L6) (antibody, human IgG1, kappa)
heavy: not shown
light: B1 light
notes: Humanized full-size IgG1/kappa antibody, heavy chains without C-terminal lysine
Human GPC3 on cells [13]
  Bmax: 4980
  Kd: 3310 pM
[14]
  Kd: 390 pM
Human GPC3 on cells [15]
  Bmax: 4570
Human GPC3 on cells [16]
  Kd: 200 pM
[17]
  Bmax: 474
Human GPC3 on cells [18]
  Bmax: 242
Human GPC3 on cells [19]
  Bmax: 4350
  Kd: 200 pM

B4: v38592-MC-GGFG-AM-Compound 139, DAR 4 (antibody, human IgG1, kappa)
heavy: not shown
light: B1 light
modifications: MC-GGFG-AM-Compound 139 drug-linker on reduced cysteines, sites not stated; MC-GGFG-AM-Compound 139 drug-linker on reduced cysteines, sites not stated; DAR 4 for the whole antibody
notes: antibody-drug conjugate
Human GPC3 on cells [20]
  EC50 (read off the curve): ~900 pM
Human GPC3 on cells [21]
  EC50 (read off the curve): ~9000 pM
Human GPC3 on cells [22]
  EC50 (read off the curve): ~300 pM
Human GPC3 on cells [12]
  EC50 (read off the curve): ~400 pM

B5: v38592 (M3-H18L6 with HC C-terminal lysine) (antibody, human IgG1, kappa)
heavy: not shown
light: B1 light
notes: identical to v37574 but the cDNA of the heavy chains encodes a C-terminal lysine; also called M3-H18L6 (WT) mAb; wild-type M3-H18L6
FcgR1A
  binding result: binds

B6: v38592-MC-GGFG-AM-Compound 139, DAR 8 (antibody, human IgG1, kappa)
heavy: not shown
light: B1 light
modifications: MC-GGFG-AM-Compound 139 drug-linker on cysteines (positions not stated); DAR 8 per antibody
notes: as for B2
Human GPC3 on cells [13]
  Bmax: 4550
  Kd: 700 pM
[14]
  Kd: 700 pM
Human GPC3 on cells [15]
  Bmax: 3370
  Kd: 7270 pM
Human GPC3 on cells [16]
  Kd: 330 pM
[17]
  Bmax: 511
Human GPC3 on cells [18]
  Bmax: 247
Human GPC3 on cells [19]
  Bmax: 5710
  Kd: 510 pM

B7: v38592-MC-GGFG-AM-Compound 139, DAR 8 (antibody, human IgG1, kappa)
heavy: not shown
light: B1 light
modifications: MC-GGFG-AM-Compound 139 drug-linker on reduced cysteines, sites not stated; MC-GGFG-AM-Compound 139 drug-linker on reduced cysteines, sites not stated; DAR 8 for the whole antibody
notes: antibody-drug conjugate
Human GPC3 on cells [20]
  EC50 (read off the curve): ~800 pM
Human GPC3 on cells [21]
  EC50 (read off the curve): ~7000 pM

B8: v40213 (H18L6_LC_N33E mAb) (antibody, human IgG1, kappa, V domains shown)
VH: QVQLVQSGAEVKKPGSSVKVSCKASGYTFTDYEMHWVKQAPGHGLEWIGAIDPETGDTAYNQKFKGKATLTADTSTSTAYMELSSLRSEDTAVYYCTRYFSFAYWGQGTLVTVSS
VL: EIVLTQSPATLSLSPGERATISCRSSQSLRHSEGNTYLQWYQQKPGQAPRLLIYKVSNRFSGVPARFSGSGSGTDFTLTISSLEPEDFAVYFCYQSKHVPYTFGGGTKVEIKR
notes: as for v40203
Human GPC3 on cells [23]
  fold increase in Kd from wild-type: ~29 fold

B9: v40215 (H18L6_LC_N33V mAb) (antibody, human IgG1, kappa, V domains shown)
VH: B8 VH
VL: B8 VL with E33V
notes: as for v40203
Human GPC3 on cells [24]
  fold increase in Kd from wild-type: > 2 fold

B10: v36180 (M3-H1L1) (antibody, human IgG1, kappa, V domains shown)
VH: B8 VH with Q1E, K38R, H43Q, K67R, T74K
VL: DVQMTQSPSSVSASVGDRVTITCRSSQSLRHSNGNTYLQWYQQKPGKAPKLLIYKVSNRFSGVPSRFSGSGSGTDFTLTISSLQPEDFATYFCYQSKHVPYTFGQGTKVEIKR
notes: humanized full-size IgG1 (IGHG1*01)/kappa antibody; heavy chain ends at G446 (EU); also called M3-HIL1
[25]
  Fold difference (hu/cyno): 1.1 fold
[1]
  NS-ELISA binding score: 5.45 ratio to buffer well
Human GPC3 on cells [2]
  EC50 (read off the curve): ~300 pM
Human GPC3 on cells [26]
  internalized fluorescence, fold increase over palivizumab, Hep G2, 5 hours, 10 nM: 17 fold
  internalized fluorescence, fold increase over palivizumab, Hep G2, 24 hours, 10 nM: 66.2 fold
  internalized fluorescence, fold increase over palivizumab, JHH-7, 5 hours, 10 nM: 8.6 fold
  internalized fluorescence, fold increase over palivizumab, JHH-7, 24 hours, 10 nM: 46.4 fold
Human GPC3 on cells [5]
  Kd: 250 pM
Human GPC3 on cells [6]
  Bmax: 9340
Human GPC3 on cells [7]
  EC50 (read off the curve): ~900 pM
Human GPC3 on cells [8]
  Bmax: 40000
[9]
  Kd: 9670 pM
[10]
  Kd: 10500 pM
Human GPC3 on cells [11]
  Kd: 910 pM

B11: v37575 (codrituzumab) (antibody, human IgG1, kappa, V domains shown)
VH: QVQLVQSGAEVKKPGASVKVSCKASGYTFTDYEMHWVRQAPGQGLEWMGALDPKTGDTAYSQKFKGRVTLTADKSTSTAYMELSSLTSEDTAVYYCTRFYSYTYWGQGTLVTVSS
VL: DVVMTQSPLSLPVTPGEPASISCRSSQSLVHSNRNTYLHWYLQKPGQSPQLLIYKVSNRFSGVPDRFSGSGSGTDFTLKISRVEAEDVGVYYCSQNTHVPPTFGQGTKLEIKR
notes: also called GC33; RG-7686
[25]
  Fold difference (hu/cyno): 1 fold
[1]
  NS-ELISA binding score: 1.11 ratio to buffer well
Human GPC3 on cells [2]
  EC50 (read off the curve): ~300 pM
Human GPC3 on cells [26]
  internalized fluorescence, fold increase over palivizumab, Hep G2, 5 hours, 10 nM: 14.4 fold
  internalized fluorescence, fold increase over palivizumab, Hep G2, 24 hours, 10 nM: 57.2 fold
  internalized fluorescence, fold increase over palivizumab, JHH-7, 5 hours, 10 nM: 8.5 fold
  internalized fluorescence, fold increase over palivizumab, JHH-7, 24 hours, 10 nM: 46.7 fold
Human GPC3 on cells [3]
  Kd: 1230 pM
[4]
  Kd: 980 pM
Human GPC3 on cells [5]
  Kd: 260 pM
Human GPC3 on cells [6]
  Bmax: 9000
Human GPC3 on cells [7]
  EC50 (read off the curve): ~1000 pM
Human GPC3 on cells [8]
  Bmax: 42300
[27]
  fold higher affinity than M3-H18L6: ~10 fold
[9]
  Kd: 910 pM
[10]
  Kd: 910 pM
Human GPC3 on cells [11]
  Kd: 1200 pM
